Measured values from US20230044661A1, “VIABLE TISSSUE FORMS AND METHODS FOR MAKING AND USING SAME” (Musculoskeletal Transplant Foundation, priority 2019, published 2023).

Assays:
[1] = system: peripheral blood mononuclear cells (PBMCs); experiment: One-way mixed lymphocyte reaction (MLR); type: cell-based, human; conditions: for Proliferated cells (% of all CPD stained), Average: 60 mg tissue, 250K cells, 5 days; for Stimulation Index: vs PBMCs + saline
Method: (§1) Cancellous and cortical bone tissue samples were obtained, processed and combined, to produce LyoGraft Bone Grafts. From each donor, cancellous tissue samples comprising cancellous bone were recovered and processed to provide cancellous granules, and cortical bone tissue samples were recovered and processed to provide cortical fibers. Quantities of cancellous granules and cortical fibers derived from the same donor were measured and combined to produce three test samples per donor, each of which contained about 40 wt % cancellous granules and about 60 wt % cortical fibers, the wt % being based on the total weight of the combined cancellous granules and cortical fibers of each sample. The total weights of the test samples (i.e., each comprising both cancellous granules and cortical fibers) ranged from 1.3 g to 1.6 g. The test samples were preserved after contact with protectants in solution, in accordance with the methods described hereinabove. Peripheral blood mononuclear cells (PBMCs) were procured from three unique blood donors in order to test for a one-way and two-war mixed lymphocyte reaction (MLR) assay. In a one-way set up, PBMCs are exposed to a test article, the lyopreserved tissue samples, and PBMC stimulation or lack thereof is assessed. In a two-way set up, mismatched blood donors are exposed to one another, and an ongoing reaction is stimulated. This ongoing reaction is then put in presence of a test article, the lyopreserved tissue samples, and stimulation or inhibition of this ongoing reaction are assessed. […] Two-way MLR testing was performed on three lyopreserved donor lots to assess the inhibitory or stimulatory effects of an ongoing/developing immunogenic reaction between two mismatched blood donors.
• 11. Blood was obtained from three unique donors and PBMCs were isolated. • 12. PBMCs were stained with a tracking dye, CPD-670, and added to 96-well round bottom culture plates for one-way MLR assay. • 12.1 This dye is used to determine whether or not an immune response has been induced. If there is an immune reaction, cells will proliferate in response to a stimulator, in this case lyopreserved tissue, and dilute the CPD-670 stain. The dilution of the stain decreases the fluorescence signal which will be used to measure any differences across test samples compared to the saline negative control and concanavalin A positive control. • 13. Lyopreserved samples are prepared by adding 30 mL of sterile saline USP to smaller units (Donor 1 and 3) or filling 2 oz jar to the top (60 mL) with saline for larger units (Donor 2), incubating for 2 mins, decanting, and tap-drying with sterile gauze. • 14. 60 mg of lyopreserved tissue per donor and 20 uL of saline were added in tripliciate for each PBMC donor in 96 well plates. • 14.1 Saline is used as a negative control. • 15. PBMCs were added to each test group (250K cells) and incubated for 5 days at 37° C. in 5% CO2 in humidifier incubator. • 16. To calculate % proliferation, cells with decreased dye fluorescent signal were compared to the total number of positively stained cells. • 17. Concanavalin A (ConA) was used as a stimulation positive control to ensure that cells (PBMC) were in good condition to proliferate. • 18. Stimulation Index (SI) was calculated as proliferating cell percentage from wells with PBMCs+lyopreserved tissue sample divided by proliferating cell percentage from PBMCs+saline.

[2] = system: mismatched peripheral blood mononuclear cells (PBMCs); experiment: Two-way mixed lymphocyte reaction (MLR); type: cell-based, human; conditions: for Stimulation Index: vs same MLR + saline
Method: as §1
• 19. Cells (PBMC) from each of two donors were added to wells of 96-well round bottom culture plates. • 20. Only cells from one of the two donors were stained with tracking dye, CPD-670, considered the responder cells. The other donor cells were left unstained, considered the inducer cells. • 21. Assay was repeated using 3 different combinations of responder/inducer cells. • 22. The amount of proliferating responder cells indicates an immune reaction induced by the mismatched inducer cells and is shown as cells with reduced dye content after six days of co-incubation. • 23. Virtuos samples are prepared by adding 30 mL of sterile saline USP to smaller units (Donor 1 and 3) or filling 2 oz jar to the top (60 mL) with saline for larger units (Donor 2), incubating for 2 mins, decanting, and tap-drying with sterile gauze. • 24. 60 mg of lyopreserved tissue per donor and 20 uL of saline were added in triplicate for each PBMC donor in 96 well plates. • 24.1 Saline is used as a negative control. • 25. PBMCs from two mismatched blood donors were added to each test group (250K cells per blood donor) and incubated for 5 days at 37° C. in 5% CO2 in humidifier incubator. • 26. Concanavalin A (ConA) was used as a stimulation positive control to ensure that cells (PBMC) were in good condition to proliferate. • 27. Stimulation Index (SI) was calculated as proliferating cell percentage from wells with two mismatched donors with lyopreserved tissue divided by proliferating cell percentage from wells with the same mismatched donor cells treated with saline.

[3] = Donor A-CPD + Donor B-Unstained MLR
[4] = Donor B-CPD + Donor C-Unstained MLR
[5] = Donor C-CPD + Donor A-Unstained MLR

## Concanavalin A [ConA]
[1]; PBMC Donor A
  Proliferated cells (% of all CPD stained), Average: 45.2%
  Stimulation Index: 28.0
[1]; PBMC Donor B
  Proliferated cells (% of all CPD stained), Average: 61.5%
  Stimulation Index: 100.3
[1]; PBMC Donor C
  Proliferated cells (% of all CPD stained), Average: 60.6%
  Stimulation Index: 155.4
[2]; [3]
  Proliferated cells (% of all CPD stained), Average: 57.8%
  Stimulation Index: 8.1
[2]; [4]
  Proliferated cells (% of all CPD stained), Average: 39.5%
  Stimulation Index: 5.3
[2]; [5]
  Proliferated cells (% of all CPD stained), Average: 50.6%
  Stimulation Index: 4.9
